Experimental data taken from the DeepSol protein solubility set.

Assay: soluble on expression in E. coli; label from the status in PepcDB or PDB records

Sequence	soluble on expression in E. coli
MDSADPQLNRFLQQLQAETQRQKFTEQVHTLTGRCWDVCFADYRPPSKMDGKTQTCIQNCVNRMIDASNFMVEHLSKMNGGHV	not soluble
MSLAQLDKNDPARGVLAAIAANASKIAEYDPRVRADEYDSVHQMRVATRELRSHLQTFEGILGGEDYLNLEKELKVLANILGRARDAEVVEERLSNLINTEVGDSIEEETKKELLEDLGAEYRREHERVVRALDNDRYTDLLQALENLLVDPPLITEVEEPEATEAPESAETTESTDVSEATEEADAEAESVEEATEQEESADAPESADLDALDEEYSPGSQAPVEEPKEPKKVDAALVLLEHLDKAHVKLVKLEKKARSQWDDLSIPMLEREENFHNLRKAAKKLRYSAEAVGKATTVETKKLYKACSGLQSVLGDYQDAITSRNELLRRAQVARRQGRDTFAYGILYQHEQTLSREYLTGYSDAFKSVEKAYAKLAEDTAKRSKKNKRKEGHHHHHH	not soluble
MAPKTGETVVEKMEVDEAKQDVPATEPAKDLNAIAVENIKEQLAALDKGEEHLITRVLQVLPKTRKQINDNVLYKLVSSHLSSDAQFAEGMLKYLHYTPAADTEVQPMDTSNVKTKSPKKGVKPVFASPESDCYLRLLVLLHLYAQKKNTEALALGENQLTSIYNFDRRTLDGLAAKTLYFLCVIYEREGRLFDHQGFLNSRLRTATLRNFSESQAVLICWLLRCYLINRQYQSAAHLVSKVAFPDNASNNDLARYMYYQGRIKALQLDYNSAAGYFLQAQRKAPQEGAIGFKQAVQKWVVVIGLLQGEIPDRSVFRQPIYRKCLAHYLDLSRGVRDGDVARFNHNLEQFKTQFEADDTLTLIVRLRQNVIKTAIKQISLAYSRIYIKDIAKKLYITNETETEYIVAKAIADGAIDAVITSDVRDGPRYMQSSETADIYRTSEPQAHFDTRIRYCLELHNQAVKALRYPPKKKIAVETIEQAREREQQELEFAKELADEDDDDF	not soluble
MSFDSLGLSPDILRAVAEQGYREPTPIQQQAIPAVLEGRDLMASAQTGTGKTAGFTLPLLQHLITRQPHAKGRRPVRALILTPTRELAAQIGENVRDYSKYLNIRSLVVFGGVSINPQMMKLRGGVDVLVATPGRLLDLEHQNAVKLDQVEILVLDEADRMLDMGFIHDIRRVLTKLPAKRQNLLFSATFSDDIKALAEKLLHNPLEIEVARRNTASDQVTQHVHFVDKKRKRELLSHMIGKGNWQQVLVFTRTKHGANHLAEQLNKDGIRSAAIHGNKSQGARTRALADFKSGDIRVLVATDIAARGLDIEELPHVVNYELPNVPEDYVHRIGRTGRAAATGEALSLVCVDEHKLLRDIEKLLKKEIPRIAIPGYEPDPSIKAEPIQNGRQQRGGGGRGQGGGRGQQQPRRGEGGAKSASAKPAEKPSRRLGDAKPAGEQQRRRRPRKPAAAQ	soluble
MAETVGERPESMSPKLDNATIAAQLGSLATALDEFNRNSGSQVEMSLLLQRVCDQVVDAIADADMAGISLLRDGRVVTVAYTDEAVREIDIPNFQALDGDYFGVAGTRKVVKARLGEAAARWPSVADNLDQAGMRSFLSAPLAVDEALAGTLNIYGQGDHGFSELDAVVLLVYTTAIEGLLRSARSVELARNEVSGLTKAMKSRAVIEQAKGIVMALRGVPADQAFEILVAQSQQEHVKLAEVARRIVESVTTNPE	not soluble
MSLIKVIDAHVHYHIYARKIPEHCKEFLENVEGTRMTLKNDNVEIEKILLVPSHPCHSEDCYDGFYIDYEERKRNPDLYMQWGEVNPLKCDVKRELERQYSLGIIGIKLHPVHHTFKPNAYREEEGGLKQLLYIYEFAEDHGLPILIHTGTSIGVGSRNKYADPIYADDIAKDFPKLRIILAHAGRPLWYNTAFHMARFTQNIFLEISSIPPKNILKVLPRIHEISDKVIYGSDFPAFKGQDLAEYAYQVYNVLKNEKIMRDNAKRILKISEGHHHHHH	not soluble
MSLSENEQFSQMEAKARARMKERGVEVSDIAELVFFLQKKYHPDLTIDECTLNVNRVLAKREVQNAILTGIELDVLAEQKKLSEPLQTMLEIDESLYGVDEVLAFSIVNIYGSIGFTNYGYIDKEKPGILKRLNDKSTGECHTFLDDIVGAISAAASSRLAHRARHTEEGGSHHHHHH	soluble
MGLLPTDRWLEEDEGDPLRLCARLAPLFGKMPAREIYSYLRLYGMYRSTRQAERLLPEMKERRLWERLGRLYERQRGIWKGPDVPVFLLPADDENRKLVREFQGKGGVAFADKLFFFLLPDHCDEEIAALVAHEYNHVCRLKQLPNEGEDATLLDAVVMEGLAEHAVAETVGAEQCAGWTKYYTDREMERFWRRYIVPNQHLPVSHPHTSRILYGLGWHPKMGGYAVGYAIVRRCLERGCSLAQLMTMEAKDIAELAGFSGKQQGAS	not soluble
MASFRSTLALVNSAKLSLSTRTMASHPLAGLLGKLNHVAIATPDLKKSSEFYKGLGAKVSEAVPQPEHGVYTVFVELPNSKIELLHPFGEKSPIQAFLNKNKDGGMHHICIEVRDIHEAVSAVKTKGIRTLGEKPKIGAHGKEVMFLHPKDCGGVLIELEQE	not soluble
MGSDKIHHHHHHVVNAIEVSDISKQFVLRHTRSIKEAVVWLAKGRKGDLSEKFHALKNVTLEVKTGETVALLGLNGSGKSTLLKHISGVMLPDSGTVRTRGRVAGLIEVGAGFHPDLSGRDNVYLNGAILGMTEQQVNDRFDDIVEFSETGQFIDTEVKFYSSGMYLRLAFSVAVHTDPEVFLIDEILAVGDEPFQRKCIDKIQELARNGKTLVVVSHDLDLVSRICARGILLEHGNVKFDGSIHDAVALLRA	not soluble
METIKISEQELINALCIYIAEKRQVGPEEVLVELMYDDDYGFSAEVEVNGRQQILIQANLIEALRLLLDREYNVNPFAARLQLELDDEEGIYALAKFNNSDD	not soluble
GEIYTETLQQTYAWTAGTNIPIKIPRNNFIRKIRVQLIGSISNSGTAAVTLPSAPFPYNLVQTFNLSYEGSKTLYSVSGTGLGILMYYTTKGQNPAYPAPGTSVPASGSVNLNVMWEFDLARFPATMVQNIILSILTGQAPSGVSINASFYITITYERVTAQEILSEGGLGADGEMPLATVLPKVIEIPTFNVPASSAPIHVAYLQPGQIYKRQLVYVINSTSGINNTDPTEYELKIVRGVPTDKIKVSWAALQAENQAEYQVAPYSGASAIIDFRKYFNGDLDLTHAPSDSIEYDLALQNQDNVYSLYVSYVLPYYDQLAALPAQVAAIVQQYVARQKRRIKRHHHHHH	soluble
MGSDKIHHHHHHMDYKELLEVLRKDLNFKKVDLYQEKSNKTRYREIELGEKSPTIEELISFTDTLGIRLSEFLYRGDITPLAASYYGKRKIEVASLINNFPELEKQFPEIYKDRFKNLQCYTLFTLCLIISKSLNNSLYTFKNKDIRELKNFYKNREVILGADYAILSHLYMAVPEYSNELDFLTEKLFPINQSYGDIHDHAVQLCIKNAVTVFLEKKDFEKADYFLEQFDIVRKVPSFILDGTINLEMIYLKHLRNFLKKRNMEEYLKAVNIVNLFSQLGENDTYKELVKEVTEIARKENFEVPSSLNIIADTFEGVGYLKSDK	not soluble
MNCRLGCGACCIAPSISSVIPGMPNGKAAGERCVQLSDDNLCLIFGSPERPAVCCDFEASLDVCGHSNEEALWLITNLESQTS	soluble
MSLNDGRLEIFQEGKPGRRIDEDQVFAAVLDALTKPAEQRTVTVAFREIPPPITAANLDQLGITTLIGVGRSDFTGSAAYRVTNIQAGMRLLHGVLIAPGEEFSFNQTIGRIDRSNGFVEGYAIIQNRTQLEWGGGICQDSTTMFRAAFWAGLPITERWGHSFYISWYDRYAFGPYGDGPGMDATIFTGGPDLKFLNDTGGWLLIQTLVDTHRHLAEVRLYGPDTGRKVLLEGPIITNRTEGHHHHHH	not soluble
MSYYHHHHHHLESTSLYKKAGFMADQLTPHLEIPTAIKPRDGRFGSGPSKVRLEQLQTLTTTAAALFGTSHRQAPVKNLVGRVRSGLAELFSLPDGYEVILGNGGATAFWDAAAFGLIDKRSLHLTYGEFSAKFASAVSKNPFVGEPIIITSDPGSAPEPQTDPSVDVIAWAHNETSTGVAVAVRRPEGSDDALVVIDATSGAGGLPVDIAETDAYYFAPQKNFASDGGLWLAIMSPAALSRIEAIAATGRWVPDFLSLPIAVENSLKNQTYNTPAIATLALLAEQIDWLVGNGGLDWAVKRTADSSQRLYSWAQERPYTTPFVTDPGLRSQVVGTIDFVDDVDAGTVAKILRANGIVDTEPYRKLGRNQLRVAMFPAVEPDDVSALTECVDWVVERL	soluble
MSPTSRPATGASLSAARRSREVADTVGGPVVDVLVVGLGATGAGAALDAAARGLGVVAVDAHDLAFGTSRWSSKLIHGGLRYLASGQLDVAHESAVERGVLMERTAPHLVRAQPFVLPLTPLVSRGQGALAWAGFRAGDTLRLAARTARATLPAPRRLSAVETRHLAPALRSDRLRGGLLSWDGRLADDARLVTALARTAAARGARILTRVRALELTGSGARVRDETTGEEGVIRARAVVNASGVWAGDLVDGIRIRPSRGTHLVLRSDRLGPLPAGLHVPIPGETNRFVLVLPQDDGRVYVGLTDEPVDGDVPDVPEVPETDVGFLLDVLGSVLDVPVHREDVVGAFAGLRPLLDTAPSDRPGAAPRTADVSRRHAVLTSSEGVITVVGGKLTTYRRMAEDAVDAAVAARGLAAGPSPTAALPLVGAAAPHTLAGVRAPRRLVRRYGTEAPAVQALASREPCLAERVLPGHPVTGAELVWALRHEGALDEADLLDRRTRVGLVPEDRAAALGAVRDLVGEVTADPRLEHHHHHH	not soluble
MGSDKIHHHHHHMRDQAESLRRMVDGVMEQGRGQGKVIAVVSGKGGVGKSNVSLNFALTLSRQNQKVALIDLDLGMGNLDILMGLSPSYHIIDMIKRELTIWDIAEQGPEGITYIAGGSGLSELVELNERQMERFFQQLESLGAIYDYIILDMGAGATAESLRFILSAHEIFVVTTPEPTSITDAYAMVKYICKEPIENPEILLIVNRAESKREGEQTAANFKRVVSHFLKKDIHSLGYLPQDSHVVKAVKAQAPFVLHAPQAKASMAMGKLVHTYLGHRVDRGAPSYQSFMKKIRKWFR	not soluble
MGSDKIHHHHHHMSGIINNREYRQKVLKEIILELHNGKSVDEVRKRFQELIKGVSTKEISEMEAQLIKEGMKVEEIQRLCDVHAAVFKGSIDQIHHPEKEEGHPVSVLKKENEAVKNYIQSHLTPNLEEIKKSDSHSTRLKLMENISMLFDLDKHYSRKENLIFPYLEKYGITAPPKVMWGVDDEIREALKECKEVINSANKTPNEITEKVESTLKRIEEMIFKEESILLPMCIDTFSEDEWLDIESESDEIGYCLISPSEKWKPKRENVEEKEKSKLANENSEGYIKFDTGILRVNELSAILDTLPLDITFVDKDGTVKYFSGGSERIFARTRAVIGRKVQNCHPPASVHIVEKVVEDLKSGKKDHEDFWLHMGELYVFIRYYAVKDNKGEFIGVLEVTQNIKEIQEITGEKRLIE	not soluble
MFEHLCNIDDMTIIGQRSNPLNEDWNEWTLVICTKCKKVYEWQHHSEEQMHGGDLAITAIATDDYLHHKYNINEQDIPQILNKKKKIRRYDRYKKIYLEDYV	not soluble
MSLANQVLAVNDDLPIRTHKPVHSGKVRSVYWLTEEDSARLIKEKGYDVAPDAPLAIMVISDRISAFDCIWHGEGGLKGVPGKGAALNAISNHWFKLFKDNGLADSHILDIPHPFVWIVQKAKPVKIEAICRKYITGSMWRAYANGEREFCGIQLPEGLEKDKALPNLLMTPSTKGILKGIPGVPEADDVNITRQNIVDNYEAFNFSSAEDIAQYEKLLKEGFNVISQALEGIDQIFVDTKFEFGYVHDAAGNEKLIYMDEVGTPDSSRIWDAKEYQAGNIVENSKEGFRQFLLNHFPDPDILLNKERMPEREALARDNDLPVESLMDISRTYIGIAEKITGKPITLSENPKAEIIEILSKEYGLIDEGHHHHHH	soluble
